In PMC5095587:

Biological target: ferredoxin isoform 2 from Arabidopsis thaliana (Arabidopsis thaliana) (UniProt P16972)
Test: NMR titration; 15N HSQC of labelled ferredoxin with purified FusA added at varying stoichiometry up to 1:1; buffer with 0.1% LDAO, sodium phosphate; 600 MHz

FusA_(1043) Δ20 (FusA from P. atrosepticum SCRI1043 lacking the 20 amino-acid N-terminal signal sequence) (from UniProt Q6CZW5 21-704) (receptor)
stoichiometry N: 1
